Laboratory results taken from patent US20100062462.
Residue numbers refer to the chain shown, from its start.

Legend:
procaspase-8 p18 subunit = system: T1, procaspase-8 p18 subunit
T1 sequence: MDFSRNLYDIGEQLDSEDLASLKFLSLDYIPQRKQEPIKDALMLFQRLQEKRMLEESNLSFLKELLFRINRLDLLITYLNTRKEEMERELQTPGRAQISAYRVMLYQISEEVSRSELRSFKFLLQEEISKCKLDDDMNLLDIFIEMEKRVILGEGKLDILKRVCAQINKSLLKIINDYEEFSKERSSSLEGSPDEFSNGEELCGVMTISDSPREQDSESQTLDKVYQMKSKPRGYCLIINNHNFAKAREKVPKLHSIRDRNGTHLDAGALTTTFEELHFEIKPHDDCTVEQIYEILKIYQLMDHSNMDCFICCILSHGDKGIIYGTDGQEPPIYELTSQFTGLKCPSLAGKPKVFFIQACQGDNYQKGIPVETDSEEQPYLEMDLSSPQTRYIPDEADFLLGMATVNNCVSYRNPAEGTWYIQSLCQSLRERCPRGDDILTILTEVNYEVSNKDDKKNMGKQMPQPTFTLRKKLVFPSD

[1] = system: T2, Flag-procaspase-8-Myc fusion polypeptide
T2 sequence: T1 sequence

[2] = system: T3, procaspase-8 F355R, F356N
T3 sequence: T1 sequence with F355R, F356N

Substance | cleavage (LC-MS of the cleaved p18 fragment) (procaspase-8 p18 subunit) | cleavage (autoradiography) [1] | cleavage (autoradiography) [2]
HIV-1 protease | This fragment had a weight of 16158 mass units (cleaved form) | Incubation of wild-type procaspase-8 with HIV protease resulted in a p41 procaspase-8 fragment | an almost negligible amount of cleavage was observed when procaspase-8 F355R, F356N was incubated with HIV protease
renin |  | another aspartyl protease, renin, did not cause procaspase 8 cleavage | 
